Series [1] concerns the molecule itself.
Series [2] addresses T1, STING CTD (STINGΔ1-138, AA139-379), His-tag removed (human), Q86WV6.
T1 chain: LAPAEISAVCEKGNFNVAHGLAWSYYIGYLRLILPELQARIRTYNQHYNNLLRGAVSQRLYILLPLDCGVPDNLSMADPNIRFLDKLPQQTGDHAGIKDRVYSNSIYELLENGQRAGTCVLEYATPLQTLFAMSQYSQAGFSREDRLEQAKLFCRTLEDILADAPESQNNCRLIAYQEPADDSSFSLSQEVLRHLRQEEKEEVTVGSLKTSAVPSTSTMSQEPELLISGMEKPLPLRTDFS
Briefly: AUC. The conditions noted are these: remark: other sources report otherwise.

The series “SEC” concerns the molecule itself. Briefly: SEC. Background: SEC sorts molecules by how far they enter the pores of the column.
The target in series [3] is T2, STING CTD WT (AA139-379) with His-tag (human), Q86WV6.
T2 chain: T1 chain
Briefly: SEC. To be noted: remark: other sources report otherwise.

Numbering of substitutions follows the chain as printed. Numbers in names are those of the source. Where two headings read alike, the source gives them in different places.

B1: STINGΔ1-148 (AA149-379) (domain or fragment, human, UniProt Q86WV6 149-379, looked up)
chain: EKGNFNVAHGLAWSYYIGYLRLILPELQARIRTYNQHYNNLLRGAVSQRLYILLPLDCGVPDNLSMADPNIRFLDKLPQQTGDHAGIKDRVYSNSIYELLENGQRAGTCVLEYATPLQTLFAMSQYSQAGFSREDRLEQAKLFCRTLEDILADAPESQNNCRLIAYQEPADDSSFSLSQEVLRHLRQEEKEEVTVGSLKTSAVPSTSTMSQEPELLISGMEKPLPLRTDFS
In the case of B1, in series [1], the “stoichiometry N” value worked out at 2.

B2: STING CTD (STINGΔ1-138, AA139-379), His-tag removed, Q86WV6 139-379 (domain or fragment)
chain: T1 chain
In the case of B2, in series [2], the stoichiometry N is 2.

B3: STING CTD K150R (domain or fragment, human, UniProt Q86WV6 139-379, looked up)
chain: T1 chain with K12R
For B3, the “stoichiometry N” value in “SEC” is 2.

B4: STING CTD K150A (domain or fragment, human, UniProt Q86WV6 139-379, looked up)
chain: T1 chain with K12A
As to B4, the “stoichiometry N” value in “SEC” came to 2.

B5: STING CTD WT (AA139-379) with His-tag, Q86WV6 139-379 (domain or fragment)
chain: T1 chain
Molecule B5 came in with a stoichiometry N in series [3] of 2.

B6: STING CTD K150L (domain or fragment, human, UniProt Q86WV6 139-379, looked up)
chain: T1 chain with K12L
On to B6, for which the “stoichiometry N” value in “SEC” was 2.

The term stoichiometry N denotes the number of molecules, sites or subunits per partner or assembly.
